Test results reported in patent publication US20200024330A1.

Columns and labels:
Assay in all cases: cell-based or functional assay
[1] = molecular target: HIV-1 Env of isolate MGRM-G-009 (HIV-1)
[2] = molecular target: HIV-1 Env of isolate MGRM-G-017 (HIV-1)
[3] = molecular target: HIV-1 Env of isolate 98CN006 (subtype CRF08 BC) (HIV-1)
[4] = molecular target: HIV-1 Env of isolate MGRM-G-006 (HIV-1)
[5] = molecular target: HIV-1 Env of isolate MGRM-G-004 (HIV-1)
[6] = molecular target: aMLV envelope (negative control pseudovirus)
[7] = molecular target: HIV-1 Env of isolate MGRM-G-015 (HIV-1)
[8] = molecular target: HIV-1 Env of isolate MGRM-G-016 (HIV-1)
[9] = molecular target: HIV-1 Env of isolate MGRM-G-027 (HIV-1)
[10] = molecular target: HIV-1 Env of isolate MGRM-G-011 (HIV-1)
[11] = molecular target: HIV-1 Env of isolate MGRM-G-001 (HIV-1)
[12] = molecular target: HIV-1 Env of isolate MGRM-AE-004 (HIV-1)
[13] = molecular target: HIV-1 Env of isolate MGRM-G-014 (HIV-1)
[14] = molecular target: HIV-1 Env of isolate MGRM-AE-005 (HIV-1)
[15] = molecular target: HIV-1 Env of isolate MGRM-AE-008 (HIV-1)
[16] = molecular target: HIV-1 Env of isolate MGRM-G-019 (HIV-1)
[17] = molecular target: HIV-1 Env of isolate MGRM-AE-006 (HIV-1)
[18] = molecular target: HIV-1 Env of isolate MGRM-G-013 (HIV-1)
[19] = molecular target: HIV-1 Env of isolate MGRM-AE-007 (HIV-1)
[20] = molecular target: HIV-1 Env of isolate MGRM-Chronic-B-023 (HIV-1)
[21] = molecular target: HIV-1 Env of isolate MGRM-D-008 (HIV-1)
[22] = molecular target: HIV-1 Env of isolate MGRM-Chronic-B-018 (HIV-1)
[23] = molecular target: HIV-1 Env of isolate MGRM-Chronic-B-012 (HIV-1)
[24] = molecular target: HIV-1 Env of isolate JRFL (HIV-1)
[25] = molecular target: HIV-1 Env of isolate MGRM-Chronic-B-024 (HIV-1)
[26] = molecular target: HIV-1 Env of isolate MGRM-Chronic-B-017 (HIV-1)
[27] = molecular target: HIV-1 Env of isolate MGRM-Chronic-B-010 (HIV-1)
[28] = molecular target: HIV-1 Env of isolate MGRM-Chronic-B-011 (HIV-1)
[29] = molecular target: HIV-1 92RW020 envelope glycoprotein (Env) on pseudovirus (HIV-1)
[30] = molecular target: HIV-1 92BR020 envelope glycoprotein (Env) on pseudovirus (HIV-1)
[31] = molecular target: HIV-1 Env of isolate 92BR020 (pseudovirus) (HIV-1 isolate 92BR020, subtype B)
[32] = molecular target: HIV-1 Env of isolate MGRM-Chronic-B-020 (HIV-1)
[33] = molecular target: HIV-1 NL43 envelope glycoprotein (Env) on pseudovirus (HIV-1)
[34] = molecular target: HIV-1 92TH021 envelope glycoprotein (Env) on pseudovirus (HIV-1)
[35] = molecular target: HIV-1 92UG024 envelope glycoprotein (Env) on pseudovirus (HIV-1)

5329_C19 (PGT-136) (antibody), sequence (VH): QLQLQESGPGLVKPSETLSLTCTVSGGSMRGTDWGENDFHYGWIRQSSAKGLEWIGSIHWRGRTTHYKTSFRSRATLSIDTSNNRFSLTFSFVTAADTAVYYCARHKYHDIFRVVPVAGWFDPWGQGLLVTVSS
5329_C19 (PGT-136) (antibody), sequence (VL): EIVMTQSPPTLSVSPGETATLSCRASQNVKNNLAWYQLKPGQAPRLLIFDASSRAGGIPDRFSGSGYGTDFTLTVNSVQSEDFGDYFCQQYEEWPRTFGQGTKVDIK

Substance	IC50, pseudovirus neutralization [1] [µg/mL]	IC50, pseudovirus neutralization [2] [µg/mL]	IC50 (µg/mL), pseudovirus neutralization [3] [µg/mL]	IC50, pseudovirus neutralization [4] [µg/mL]	IC50, pseudovirus neutralization [5] [µg/mL]	IC50, pseudovirus neutralization [6] [µg/mL]	IC50, pseudovirus neutralization [7] [µg/mL]	IC50, pseudovirus neutralization [8] [µg/mL]	IC50, pseudovirus neutralization [9] [µg/mL]	IC50, pseudovirus neutralization [10] [µg/mL]	IC50, pseudovirus neutralization [11] [µg/mL]	neutralization IC50 [12] [µg/mL]	IC50, pseudovirus neutralization [13] [µg/mL]	neutralization IC50 [14] [µg/mL]	neutralization IC50 [15] [µg/mL]	IC50, pseudovirus neutralization [16] [µg/mL]	neutralization IC50 [17] [µg/mL]	IC50, pseudovirus neutralization [18] [µg/mL]	IC50 (ug/ml), neutralizing activity [29] [µg/mL]	IC50 (ug/ml), neutralizing activity [30] [µg/mL]	further results
5145_B14 (PGT-127) (antibody)	> 50	> 50	0.067	> 50	> 50	> 50	> 50	> 50	> 50	> 50	0.113	> 50	0.009	> 50	> 50	0.429	> 50	7.7	–	–	neutralization IC50 [19]: > 50 µg/mL
5329_C19 (PGT-136) (antibody)	> 50	> 50	–	> 50	> 50	> 50	> 50	> 50	45.2	> 50	8.11	–	> 50	–	–	44.3	–	> 50	0.738	> 10	IC50 [20]: > 50 µg/mL; IC50 [21]: > 50 µg/mL; IC50 [22]: > 50 µg/mL; IC50 [23]: 43.1 µg/mL; IC50 [24]: > 50 µg/mL; IC50 [25]: > 50 µg/mL; IC50 [26]: > 50 µg/mL; IC50 [27]: > 50 µg/mL; IC50 [28]: > 50 µg/mL; IC50 (µg/mL) neutralization [31]: 8.61 µg/mL; IC50 [32]: > 50 µg/mL
5147_N06 (PGT-130) (antibody)	> 50	> 50	–	> 50	> 50	> 50	> 50	> 50	4.14	> 50	0.0198	–	2.23	–	–	27.9	–	> 50	0.014	1.12	IC50 [20]: > 50 µg/mL; IC50 [21]: > 50 µg/mL; IC50 [22]: 31.9 µg/mL; IC50 [23]: 0.373 µg/mL; IC50 [24]: 0.046 µg/mL; IC50 [25]: 5.78 µg/mL; IC50 [26]: > 50 µg/mL; IC50 [27]: 0.006 µg/mL; IC50 (ug/ml), neutralizing activity [33]: > 10 µg/mL; IC50 [28]: 0.153 µg/mL; IC50 (ug/ml), neutralizing activity [34]: 0.0082 µg/mL; IC50 (µg/mL) neutralization [31]: 1.4 µg/mL; IC50 (ug/ml), neutralizing activity [35]: > 10 µg/mL; IC50 [32]: 0.014 µg/mL
4838_L06 (PGT-121) (antibody)	0.02	0.004	0.01	> 50	0.115	> 50	> 50	> 50	0.124	3.17	0.004	> 50	0.009	> 50	> 50	0.011	> 50	3.99	–	–	IC50 (ug/ml), neutralizing activity [33]: > 10 µg/mL; IC50 (ug/ml), neutralizing activity [34]: > 10 µg/mL; IC50 (ug/ml), neutralizing activity [35]: > 10 µg/mL; neutralization IC50 [19]: > 50 µg/mL
4877_D15 (PGT-122) (antibody)	0.514	0.032	0.021	> 50	2.15	> 50	> 50	> 50	0.606	31.3	0.005	> 50	0.008	> 50	> 50	0.016	> 50	3.45	0.0072	0.0337	Neutralization by PGT-122, IC50 [6]: > 10 µg/mL; Neutralization by PGT-122, IC80 [6]: > 10 µg/mL; Neutralization by PGT-122, IC90 [6]: > 10 µg/mL; Neutralization by PGT-122, IC95 [6]: > 10 µg/mL; IC50 (ug/ml), neutralizing activity [33]: > 10 µg/mL; IC50 (ug/ml), neutralizing activity [34]: > 10 µg/mL; IC50 (ug/ml), neutralizing activity [35]: > 10 µg/mL; neutralization IC50 [19]: > 50 µg/mL
5343_B08 (PGT-135) (antibody)	> 50	0.137	–	> 50	> 50	> 50	> 50	> 50	0.062	> 50	0.393	–	> 50	–	–	0.145	–	> 50	0.157	0.104	IC50 [20]: 0.329 µg/mL; IC50 [21]: > 50 µg/mL; IC50 [22]: > 50 µg/mL; IC50 [23]: 0.166 µg/mL; IC50 [24]: > 50 µg/mL; IC50 [25]: > 50 µg/mL; IC50 [26]: > 50 µg/mL; IC50 [27]: > 50 µg/mL; IC50 [28]: > 50 µg/mL; IC50 (µg/mL) neutralization [31]: 0.073 µg/mL; IC50 [32]: 0.057 µg/mL
5141_B17 (PGT-126) (antibody)	> 50	> 50	0.046	> 50	> 50	> 50	> 50	> 50	0.875	7.32	0.038	> 50	0.009	0.324	> 50	0.018	17.3	48.8	0.0046	0.0163	IC50 [6]: > 10 µg/mL; IC80 [6]: > 10 µg/mL; IC90 [6]: > 10 µg/mL; IC95 [6]: > 10 µg/mL; IC50 (ug/ml), neutralizing activity [33]: > 10 µg/mL; IC50 (ug/ml), neutralizing activity [34]: 0.115 µg/mL; IC50 (ug/ml), neutralizing activity [35]: > 10 µg/mL; neutralization IC50 [19]: > 50 µg/mL
5114_A19 (PGT-128) (antibody)	> 50	0.319	–	> 50	> 50	> 50	> 50	> 50	0.313	8.21	0.019	–	0.004	–	–	0.01	–	0.995	–	–	IC50 [20]: > 50 µg/mL; IC50 [21]: 0.033 µg/mL; IC50 [22]: 0.02 µg/mL; IC50 [23]: 0.026 µg/mL; IC50 [24]: 0.007 µg/mL; IC50 [25]: > 50 µg/mL; IC50 [26]: > 50 µg/mL; IC50 [27]: 0.004 µg/mL; IC50 [28]: 0.02 µg/mL; IC50 (µg/mL) neutralization [31]: 0.009 µg/mL; IC50 [32]: 0.007 µg/mL
